In article PMC9482650, “Quantitative fragmentomics allow affinity mapping of interactomes” (Nature Communications, 2022):

Columns and labels:
Assay in all cases: holdup assay
Set-up in all cases: key: below the threshold = too weak to quantify, mostly under pKd 3.1 to 4
FRMPD2_1, Q68DX3 = biological target: FRMPD2_1, Q68DX3
PDZD7_3, Q9H5P4 = biological target: T1, PDZD7_3, Q9H5P4
T1 sequence (Q9H5P4 857-944, limits assumed, looked up): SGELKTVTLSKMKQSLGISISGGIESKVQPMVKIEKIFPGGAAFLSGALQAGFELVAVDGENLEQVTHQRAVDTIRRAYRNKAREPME

DLG2_2, Q15700 = biological target: DLG2_2, Q15700
PARD3_3, Q8TEW0 = biological target: PARD3_3, Q8TEW0
MAGI3_2, Q5TCQ9 = biological target: MAGI3_2, Q5TCQ9
Inadl_1, Q8NI35 = biological target: Inadl_1, Q8NI35
GRID2IP_1, A4D2P6 = biological target: GRID2IP_1, A4D2P6
LNX2_3, Q8N448 = biological target: T2, LNX2_3, Q8N448
T2 sequence (Q8N448 463-564, limits assumed, looked up): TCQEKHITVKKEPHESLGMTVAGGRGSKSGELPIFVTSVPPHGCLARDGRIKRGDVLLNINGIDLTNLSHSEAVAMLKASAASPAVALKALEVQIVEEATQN

GIPC2, Q8TF65 = biological target: GIPC2, Q8TF65
GRIP1_3, Q9Y3R0 = biological target: T3, GRIP1_3, Q9Y3R0
T3 sequence (Q9Y3R0 247-346, limits assumed, looked up): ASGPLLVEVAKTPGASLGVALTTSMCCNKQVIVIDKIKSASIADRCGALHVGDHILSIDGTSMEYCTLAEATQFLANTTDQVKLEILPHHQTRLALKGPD

SHANK1, Q9Y566 = biological target: T4, SHANK1, Q9Y566
T4 sequence (Q9Y566 658-767, limits assumed, looked up): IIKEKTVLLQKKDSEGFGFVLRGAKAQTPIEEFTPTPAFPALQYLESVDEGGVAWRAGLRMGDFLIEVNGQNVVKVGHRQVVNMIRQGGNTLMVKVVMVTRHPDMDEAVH

APBA1_2, Q02410 = biological target: T5, APBA1_2, Q02410
T5 sequence (Q02410 742-832, limits assumed, looked up): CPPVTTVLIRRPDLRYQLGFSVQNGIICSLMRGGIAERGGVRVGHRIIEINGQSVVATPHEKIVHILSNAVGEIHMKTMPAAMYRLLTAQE

GRIP1_7, Q9Y3R0 = biological target: T6, GRIP1_7, Q9Y3R0
T6 sequence (Q9Y3R0 999-1096, limits assumed, looked up): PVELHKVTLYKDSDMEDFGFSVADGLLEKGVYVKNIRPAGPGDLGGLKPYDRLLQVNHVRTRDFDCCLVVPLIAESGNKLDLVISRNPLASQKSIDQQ

HTRA3, P83110 = biological target: T7, HTRA3, P83110
T7 sequence (P83110 354-453, limits assumed, looked up): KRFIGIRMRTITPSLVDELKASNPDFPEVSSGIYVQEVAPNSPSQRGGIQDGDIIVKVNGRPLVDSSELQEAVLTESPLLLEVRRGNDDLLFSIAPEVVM

TX1BP3, O14907 = biological target: T8, TX1BP3, O14907
T8 sequence (O14907 10-122, limits assumed, looked up): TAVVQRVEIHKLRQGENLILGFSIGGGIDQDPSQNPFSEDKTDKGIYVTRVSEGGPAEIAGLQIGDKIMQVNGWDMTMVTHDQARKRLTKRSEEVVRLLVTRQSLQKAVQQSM

MAST1, Q9Y2H9 = biological target: MAST1, Q9Y2H9
SYNJ2BP, P57105 = biological target: T9, SYNJ2BP, P57105
T9 sequence (P57105 8-110, limits assumed, looked up): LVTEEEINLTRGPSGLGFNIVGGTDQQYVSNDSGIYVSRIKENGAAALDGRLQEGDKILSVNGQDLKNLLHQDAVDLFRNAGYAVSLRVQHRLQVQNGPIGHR

GRID2IP_2, A4D2P6 = biological target: GRID2IP_2, A4D2P6
NHERF4_4, Q86UT5 = biological target: NHERF4_4, Q86UT5
SNTB1, Q13884 = biological target: T10, SNTB1, Q13884
T10 sequence (Q13884 107-205, limits assumed, looked up): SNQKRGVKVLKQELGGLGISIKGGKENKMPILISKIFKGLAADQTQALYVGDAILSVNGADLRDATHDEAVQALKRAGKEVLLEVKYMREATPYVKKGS

APBA1_1, Q02410 = biological target: T11, APBA1_1, Q02410
T11 sequence (Q02410 651-752, limits assumed, looked up): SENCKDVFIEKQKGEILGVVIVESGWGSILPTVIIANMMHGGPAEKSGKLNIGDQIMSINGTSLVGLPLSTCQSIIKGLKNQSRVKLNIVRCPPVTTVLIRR

MPDZ_10, O75970 = biological target: T12, MPDZ_10, O75970
T12 sequence (O75970 1624-1722, limits assumed, looked up): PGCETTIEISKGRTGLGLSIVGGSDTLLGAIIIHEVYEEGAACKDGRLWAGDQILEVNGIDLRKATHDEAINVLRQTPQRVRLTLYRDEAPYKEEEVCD

MPP7, Q5T2T1 = biological target: T13, MPP7, Q5T2T1
T13 sequence (Q5T2T1 134-230, limits assumed, looked up): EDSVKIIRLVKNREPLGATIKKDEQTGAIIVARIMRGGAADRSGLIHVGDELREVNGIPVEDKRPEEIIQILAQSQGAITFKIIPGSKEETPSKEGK

[1] = plain residues with an end cap or a label only (N-terminal biotin on a linker: (peg)3)
[2] = plain residues with an end cap or a label only (N-terminal biotin on a linker: ado-ado)

FRMPD2_1, Q68DX3, sequence (Q68DX3 770-861): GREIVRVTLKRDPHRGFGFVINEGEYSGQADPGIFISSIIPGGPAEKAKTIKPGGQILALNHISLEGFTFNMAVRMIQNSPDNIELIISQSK
NHERF4_4, Q86UT5, sequence (Q86UT5 464-550): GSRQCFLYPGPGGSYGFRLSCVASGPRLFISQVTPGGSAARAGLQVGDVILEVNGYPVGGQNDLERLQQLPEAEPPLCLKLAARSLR
MAGI3_2, Q5TCQ9, sequence (Q5TCQ9 398-503): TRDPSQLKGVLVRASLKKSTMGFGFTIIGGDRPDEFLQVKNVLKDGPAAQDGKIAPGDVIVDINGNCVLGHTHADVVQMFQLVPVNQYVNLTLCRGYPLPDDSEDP
GIPC2, Q8TF65, sequence (Q8TF65 112-203): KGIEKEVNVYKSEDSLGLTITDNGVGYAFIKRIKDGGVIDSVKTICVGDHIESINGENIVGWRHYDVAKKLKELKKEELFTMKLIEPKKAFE
GRID2IP_2, A4D2P6, sequence (A4D2P6 272-370): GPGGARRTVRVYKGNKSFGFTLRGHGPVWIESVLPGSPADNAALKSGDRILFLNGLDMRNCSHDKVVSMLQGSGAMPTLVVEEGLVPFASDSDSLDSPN
DLG2_2, Q15700, sequence (Q15700 189-283): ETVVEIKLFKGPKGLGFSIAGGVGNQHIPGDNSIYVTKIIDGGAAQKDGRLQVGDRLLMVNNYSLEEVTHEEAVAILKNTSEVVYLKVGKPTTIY
PARD3_3, Q8TEW0, sequence (Q8TEW0 582-685): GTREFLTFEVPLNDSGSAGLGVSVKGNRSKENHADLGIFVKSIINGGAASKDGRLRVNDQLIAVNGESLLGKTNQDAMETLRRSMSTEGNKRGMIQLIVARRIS
GRID2IP_1, A4D2P6, sequence (A4D2P6 1-87): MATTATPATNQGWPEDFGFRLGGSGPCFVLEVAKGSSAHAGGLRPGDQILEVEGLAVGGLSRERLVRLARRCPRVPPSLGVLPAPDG
MAST1, Q9Y2H9, sequence (Q9Y2H9 962-1065): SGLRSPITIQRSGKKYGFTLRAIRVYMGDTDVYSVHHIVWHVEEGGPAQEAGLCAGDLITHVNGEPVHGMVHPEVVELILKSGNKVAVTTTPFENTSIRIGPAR
Inadl_1, Q8NI35, sequence (Q8NI35 113-229): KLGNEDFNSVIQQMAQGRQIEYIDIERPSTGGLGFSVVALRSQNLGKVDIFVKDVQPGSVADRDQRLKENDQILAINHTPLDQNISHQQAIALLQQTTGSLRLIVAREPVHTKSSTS

YDEPTTTTSVPL [SARS-Cov2-3a, P0DTC3]
pKd (FRMPD2_1, Q68DX3; [1]): below the threshold | pKd (PDZD7_3, Q9H5P4; [1]): below the threshold | pKd (DLG2_2, Q15700; [1]): below the threshold | pKd (PARD3_3, Q8TEW0; [1]): below the threshold | pKd (MAGI3_2, Q5TCQ9; [1]): below the threshold | pKd (Inadl_1, Q8NI35; [1]): below the threshold | pKd (GRID2IP_1, A4D2P6; [1]): below the threshold | pKd (LNX2_3, Q8N448; [1]): below the threshold | pKd (GIPC2, Q8TF65; [1]): below the threshold | pKd (GRIP1_3, Q9Y3R0; [1]): below the threshold | pKd (SHANK1, Q9Y566; [1]): below the threshold | pKd (APBA1_2, Q02410; [1]): below the threshold | pKd (GRIP1_7, Q9Y3R0; [1]): below the threshold | pKd (HTRA3, P83110; [1]): below the threshold | pKd (TX1BP3, O14907; [1]): below the threshold | pKd (MAST1, Q9Y2H9; [1]): below the threshold | pKd (SYNJ2BP, P57105; [1]): below the threshold | pKd (GRID2IP_2, A4D2P6; [1]): below the threshold | pKd (NHERF4_4, Q86UT5; [1]): below the threshold | pKd (SNTB1, Q13884; [1]): below the threshold | pKd (APBA1_1, Q02410; [1]): below the threshold | pKd (MPDZ_10, O75970; [1]): below the threshold | pKd (MPP7, Q5T2T1; [1]): below the threshold

RPGFASESKV [ADRB1, P08588]
pKd (FRMPD2_1, Q68DX3; [2]): below the threshold | pKd (PDZD7_3, Q9H5P4; [2]): 3.71 | pKd (DLG2_2, Q15700; [2]): 3.87 | pKd (PARD3_3, Q8TEW0; [2]): below the threshold | pKd (MAGI3_2, Q5TCQ9; [2]): 5.13 | pKd (Inadl_1, Q8NI35; [2]): below the threshold | pKd (GRID2IP_1, A4D2P6; [2]): below the threshold | pKd (LNX2_3, Q8N448; [2]): below the threshold | pKd (GIPC2, Q8TF65; [2]): below the threshold | pKd (GRIP1_3, Q9Y3R0; [2]): below the threshold | pKd (SHANK1, Q9Y566; [2]): below the threshold | pKd (APBA1_2, Q02410; [2]): 3.82 | pKd (GRIP1_7, Q9Y3R0; [2]): below the threshold | pKd (HTRA3, P83110; [2]): below the threshold | pKd (TX1BP3, O14907; [2]): 4.72 | pKd (MAST1, Q9Y2H9; [2]): 3.66 | pKd (SYNJ2BP, P57105; [2]): 4.64 | pKd (GRID2IP_2, A4D2P6; [2]): below the threshold | pKd (NHERF4_4, Q86UT5; [2]): below the threshold | pKd (SNTB1, Q13884; [2]): 4.35 | pKd (APBA1_1, Q02410; [2]): below the threshold | pKd (MPDZ_10, O75970; [2]): below the threshold | pKd (MPP7, Q5T2T1; [2]): below the threshold

GQETPLNTFC [MAP7D2, Q96T17]
pKd (FRMPD2_1, Q68DX3; [2]): below the threshold | pKd (PDZD7_3, Q9H5P4; [2]): 4.29 | pKd (DLG2_2, Q15700; [2]): below the threshold | pKd (PARD3_3, Q8TEW0; [2]): below the threshold | pKd (MAGI3_2, Q5TCQ9; [2]): below the threshold | pKd (Inadl_1, Q8NI35; [2]): below the threshold | pKd (GRID2IP_1, A4D2P6; [2]): below the threshold | pKd (LNX2_3, Q8N448; [2]): below the threshold | pKd (GIPC2, Q8TF65; [2]): below the threshold | pKd (GRIP1_3, Q9Y3R0; [2]): below the threshold | pKd (SHANK1, Q9Y566; [2]): below the threshold | pKd (APBA1_2, Q02410; [2]): below the threshold | pKd (GRIP1_7, Q9Y3R0; [2]): below the threshold | pKd (HTRA3, P83110; [2]): 4.55 | pKd (TX1BP3, O14907; [2]): 4.04 | pKd (MAST1, Q9Y2H9; [2]): 3.79 | pKd (SYNJ2BP, P57105; [2]): below the threshold | pKd (GRID2IP_2, A4D2P6; [2]): 3.88 | pKd (NHERF4_4, Q86UT5; [2]): below the threshold | pKd (SNTB1, Q13884; [2]): below the threshold | pKd (APBA1_1, Q02410; [2]): below the threshold | pKd (MPDZ_10, O75970; [2]): below the threshold | pKd (MPP7, Q5T2T1; [2]): below the threshold
